Measurements as given in patent US20210171647A1 (WUXI BIOLOGICS SHANGHAI, published 2021).

Legend:
Experiment in all cases: ELISA, antibody coated, OX40-ECD.His mutant supernatant; relative to silent alanine substitutions;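 note: captured OX40 mutant protein detected with HRP-labelled anti-His antibody, absorbance read-out, scaled to the mean signal of control mutants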
human OX40-ECD.His D40A = molecular target: T1, human OX40-ECD.His D40A (human, UniProt P43489 29-214)
T1 construct: extracellular domain; not shown: C-terminal His-tag
T1 sequence (looked up): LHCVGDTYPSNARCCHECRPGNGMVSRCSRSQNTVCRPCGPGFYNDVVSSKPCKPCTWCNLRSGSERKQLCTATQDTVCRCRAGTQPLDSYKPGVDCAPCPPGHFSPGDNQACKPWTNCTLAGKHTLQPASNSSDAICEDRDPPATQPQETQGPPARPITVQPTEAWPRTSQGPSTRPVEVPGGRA

human OX40-ECD.His R65A = molecular target: T2, human OX40-ECD.His R65A (human, UniProt P43489 29-214)
T2 construct: extracellular domain; not shown: C-terminal His-tag
T2 sequence (looked up): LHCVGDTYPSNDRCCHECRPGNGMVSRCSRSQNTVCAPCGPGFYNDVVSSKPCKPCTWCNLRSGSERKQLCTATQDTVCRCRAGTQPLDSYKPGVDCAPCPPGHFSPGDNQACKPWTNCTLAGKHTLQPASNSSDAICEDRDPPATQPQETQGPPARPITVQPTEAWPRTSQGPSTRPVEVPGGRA

human OX40-ECD.His T154A = molecular target: T3, human OX40-ECD.His T154A (human, UniProt P43489 29-214)
T3 construct: extracellular domain; not shown: C-terminal His-tag
T3 sequence (looked up): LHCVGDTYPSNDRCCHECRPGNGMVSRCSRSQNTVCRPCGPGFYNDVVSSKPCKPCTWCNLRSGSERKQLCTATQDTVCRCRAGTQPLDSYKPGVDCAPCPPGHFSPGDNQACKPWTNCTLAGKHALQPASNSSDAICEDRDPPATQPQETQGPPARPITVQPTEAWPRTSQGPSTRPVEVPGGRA

human OX40-ECD.His D124A = molecular target: T4, human OX40-ECD.His D124A (human, UniProt P43489 29-214)
T4 construct: extracellular domain; not shown: C-terminal His-tag
T4 sequence (looked up): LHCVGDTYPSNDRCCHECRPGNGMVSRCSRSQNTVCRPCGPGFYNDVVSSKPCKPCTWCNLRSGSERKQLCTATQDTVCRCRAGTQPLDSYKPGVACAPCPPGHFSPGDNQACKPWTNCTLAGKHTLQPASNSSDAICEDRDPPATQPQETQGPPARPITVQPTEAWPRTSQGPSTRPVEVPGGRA

human OX40-ECD.His V32A = molecular target: T5, human OX40-ECD.His V32A (human, UniProt P43489 29-214)
T5 construct: extracellular domain; not shown: C-terminal His-tag
T5 sequence (looked up): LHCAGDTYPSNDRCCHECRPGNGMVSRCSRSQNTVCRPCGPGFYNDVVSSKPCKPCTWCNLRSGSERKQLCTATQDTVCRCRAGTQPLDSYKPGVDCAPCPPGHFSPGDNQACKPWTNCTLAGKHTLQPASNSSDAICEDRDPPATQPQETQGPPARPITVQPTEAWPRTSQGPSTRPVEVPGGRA

human OX40-ECD.His T113A = molecular target: T6, human OX40-ECD.His T113A (human, UniProt P43489 29-214)
T6 construct: extracellular domain; not shown: C-terminal His-tag
T6 sequence (looked up): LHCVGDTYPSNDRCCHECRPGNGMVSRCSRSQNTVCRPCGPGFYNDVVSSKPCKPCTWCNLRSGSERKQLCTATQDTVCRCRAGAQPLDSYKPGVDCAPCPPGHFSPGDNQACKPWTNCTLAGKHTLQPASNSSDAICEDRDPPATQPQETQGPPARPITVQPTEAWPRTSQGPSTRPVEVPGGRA

human OX40-ECD.His P37A = molecular target: T7, human OX40-ECD.His P37A (human, UniProt P43489 29-214)
T7 construct: extracellular domain; not shown: C-terminal His-tag
T7 sequence (looked up): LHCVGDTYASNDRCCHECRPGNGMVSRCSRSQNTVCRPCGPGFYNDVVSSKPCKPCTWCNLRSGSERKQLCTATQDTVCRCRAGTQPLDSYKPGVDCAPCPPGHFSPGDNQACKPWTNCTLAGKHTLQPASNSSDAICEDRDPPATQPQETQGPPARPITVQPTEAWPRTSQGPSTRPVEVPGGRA

human OX40-ECD.His D168A = molecular target: T8, human OX40-ECD.His D168A (human, UniProt P43489 29-214)
T8 construct: extracellular domain; not shown: C-terminal His-tag
T8 sequence (looked up): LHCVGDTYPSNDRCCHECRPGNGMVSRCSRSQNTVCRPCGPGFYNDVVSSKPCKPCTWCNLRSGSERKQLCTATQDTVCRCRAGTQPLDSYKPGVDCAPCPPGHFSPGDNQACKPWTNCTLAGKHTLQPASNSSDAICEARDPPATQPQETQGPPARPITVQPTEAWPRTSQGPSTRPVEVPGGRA

human OX40-ECD.His A158G = molecular target: T9, human OX40-ECD.His A158G (human, UniProt P43489 29-214)
T9 construct: extracellular domain; not shown: C-terminal His-tag
T9 sequence (looked up): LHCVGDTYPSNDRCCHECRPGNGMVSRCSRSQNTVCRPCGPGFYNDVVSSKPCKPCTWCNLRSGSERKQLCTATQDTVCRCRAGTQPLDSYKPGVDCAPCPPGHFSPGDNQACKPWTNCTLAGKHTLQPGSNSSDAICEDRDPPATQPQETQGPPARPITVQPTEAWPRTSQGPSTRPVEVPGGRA

human OX40-ECD.His Y36A = molecular target: T10, human OX40-ECD.His Y36A (human, UniProt P43489 29-214)
T10 construct: extracellular domain; not shown: C-terminal His-tag
T10 sequence (looked up): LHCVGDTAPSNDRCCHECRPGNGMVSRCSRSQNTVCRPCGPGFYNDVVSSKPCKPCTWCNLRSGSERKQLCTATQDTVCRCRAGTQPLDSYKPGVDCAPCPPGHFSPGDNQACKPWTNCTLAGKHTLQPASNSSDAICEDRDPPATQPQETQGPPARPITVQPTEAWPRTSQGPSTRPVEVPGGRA

B1: 1.134.9-u1-IgG1L (antibody, V domains shown)
VH: QVQLQESGPGLVKPSGTLSLTCAVSGGSISSYNWWSWVRQPPGKGLEWIGEIYHGGNTNYNPSLKSRVTMSVDNSKNQFSLKLSSVTAADTAVYYCARAPGDWGGSPYFDFWGQGTLVTVSS
VL: SSELTQDPAVSVALGQTVRITCQGDNLRTYYASWYQQKPGQAPILLIYGRNKRPSGIPDRFSGSSSGNTASLTITGAQAEDEAAYYCNSRDSSGNPVVFGGGTKLTVL
notes: fully human IgG1, lambda
Fold Change (human OX40-ECD.His D40A): 0.994 | Fold Change (human OX40-ECD.His R65A): 0.996 | Fold Change (human OX40-ECD.His T154A): 0.843 | Fold Change (human OX40-ECD.His D124A): 0.989 | Fold Change (human OX40-ECD.His V32A): 1.01 | Fold Change (human OX40-ECD.His T113A): 0.784 | Fold Change (human OX40-ECD.His P37A): 1.01 | Fold Change (human OX40-ECD.His D168A): 0.983 | Fold Change (human OX40-ECD.His A158G): 1.01 | Fold Change (human OX40-ECD.His Y36A): 1
